Measurements taken from patent US20260241018A1 (BIOCYTOGEN PHARMACEUTICALS BEIJING, published 2026).

Biological target: T1, 5T4 on NCI-H226 cells, NCI-H2030 cells and HCC827 cells (UniProt Q13641 32-420, limits assumed)
T1 construct: whole, on cells
T1 sequence (looked up): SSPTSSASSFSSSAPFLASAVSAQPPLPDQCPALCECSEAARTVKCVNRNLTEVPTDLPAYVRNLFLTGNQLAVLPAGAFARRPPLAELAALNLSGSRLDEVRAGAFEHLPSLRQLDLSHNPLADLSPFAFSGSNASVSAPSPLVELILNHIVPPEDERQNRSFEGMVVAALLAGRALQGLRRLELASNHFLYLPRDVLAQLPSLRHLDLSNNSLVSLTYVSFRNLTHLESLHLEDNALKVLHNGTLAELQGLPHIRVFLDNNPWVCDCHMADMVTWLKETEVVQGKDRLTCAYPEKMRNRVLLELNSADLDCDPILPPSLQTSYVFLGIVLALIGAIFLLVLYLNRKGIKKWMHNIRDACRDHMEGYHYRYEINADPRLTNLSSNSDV
Assay: flow cytometry on NCI-H226 cells, Alexa Fluor 647 anti-human IgG Fc secondary antibody, MFI
Description: NCI-H226 cells, NCI-H2030 cells or HCC827 cells were plated in a 96-well plate at a density of 2×10⁵ cells/well. Serially diluted purified anti-5T4 antibody 32G1 or the positive control PF06263507 analog-SI (maximum concentration: 20 μg/mL, 2-fold dilutions, 12 gradients) were added to each well and were incubated at 4° C. for 30 minutes. Then, after one wash with PBS, the cells were incubated with the secondary antibody Alexa Fluor® 647 anti human IgG Fcγ (Jackson ImmunoResearch Laboratories, Inc., Cat #: 109-606-170) at 4° C. for 15 minutes before flow cytometry analysis.
The cells were collected, and the mean fluorescence intensity (MFI) was determined.

binding result: binds
B1: PF06263507 analog-SI (antibody, V domains shown)
VH: EVQLVESGGGLVQPGGSLRLSCAASGYTFTNFGMNWVRQAPGKGLEWVAWINTNTGEPRYAEEFKGRFTISRDNAKNSLYLQMNSLRAEDTAVYYCARDWDGAYFFDYWGQGTLVTVSS
VL: DIQMTQSPSSLSASVGDRVTITCKASQSVSNDVAWYQQKPGKAPKLLIYFATNRYTGVPSRFSGSGYGTDFTLTISSLQPEDFATYYCQQDYSSPWTFGQGTKVEIK
notes: PF06263507 is a humanized IgG1 monoclonal antibody targeting 5T4; also called positive control PF06263507 analog-SI
